Measurements: patent publication US20260146073A1 (published 2026)
Positions count from the first letter of the chain named. Blank lines part the entries; values can stand above or below the binder they belong to.

Legend:
[1] = target: T1, mutated CDKN2A, frameshift (p16INK4a -1 or +2 indels between M54 and W100); p14ARF -2 or +1 indels between G69 … (human); experiment: cytokine release
T1 peptide: AVCPWTWLR

[2] = target: T2, mutated CDKN2A, frameshift (p16INK4a -1 or +2 indels between M54 and W100); p14ARF -2 or +1 indels between G69 … (human); experiment: multimer staining
T2 peptide: AVCPWTWLR

[3] = target: T3, WT p16INK4a (CDKN2A) peptide on HLA-A*02:01 (human); experiment: cytokine release
T3 peptide: RLPVDLAEEL

[4] = target: T4, WT p16INK4a (CDKN2A) peptide on HLA-A*02:01 (human); experiment: cytokine release
T4 peptide: LPVDLAEEL

[5] = target: T1, mutated CDKN2A, frameshift (p16INK4a -1 …); experiment: multimer staining

binding result [1]: recognises
binding result [2]: recognises
B1: 1913 TCR-41BB (TCR, V domains shown)
Valpha: ELKVEQNPLFLSMQEGKNYTIYCNYSTTSDRLYWYRQDPGKSLESLFVLLSNGAVKQEGRLMASLDTKARLSTLHITAAVHDLSATYFCAVDPTGANSKLTFGKGITLSVRP
Vbeta: GVTQTPKHLITATGQRVTLRCSPRSGDLSVYWYQQSLDQGLQFLIQYYNGEERAKGNILERFSAQQFPDLHSELNLSSLELGDSALYFCASSVAISGEETQYFGPGTRLLVL

binding result [3]: no recognition
binding result [4]: no recognition
B2: 4286 TCR 10-3 (TCR, V domains shown)
Valpha: QSVSQHNHHVILSEAASLELGCNYSYGGTVNLFWYVQYPGQHLQLLLKYFSGDPLVKGIKGFEAEFIKSKFSFNLRKPSVQWSDTAEYFCAVKDTGFQKLVFGTGTRLLVSP
Vbeta: GAVVSQHPSWVICKSGTSVKIECRSLDFQATTMFWYRQFPKQSLMLMATSNEGSKATYEQGVEKDKFLINHASLTLSTLTVTSAHPEDSSFYICSARGGRNSFEQFFGPGTRLTVL

binding result [3]: no recognition
binding result [4]: no recognition
B3: 4286 TCR 10-4 (TCR, V domains shown)
Valpha: B2 Valpha
Vbeta: B2 Vbeta with R100A, N101R, F103Y, F106Y, L116T

binding result [5]: recognises
B4: 3333 TCR-A (TCR, V domains shown)
Valpha: QKEVEQNSGPLSVPEGAIASLNCTYSDRGSQSFFWYRQYSGKSPELIMSIYSNGDKEDGRFTAQLNKASQYVSLLIRDSQPSDSATYLCAVNTASGTYKYIFGTGTRLKVLA
Vbeta: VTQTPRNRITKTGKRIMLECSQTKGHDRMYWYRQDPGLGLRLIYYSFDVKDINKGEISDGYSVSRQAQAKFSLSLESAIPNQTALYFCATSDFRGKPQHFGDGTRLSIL

binding result [3]: no recognition
binding result [4]: no recognition
B5: 4286 TCR 10-1 (TCR, V domains shown)
Valpha: QKEVEQNSGPLSVPEGAIASLNCTYSDRGSQSFFWYRQYSGKSPELIMFIYSNGDKEDGRFTAQLNKASQYVSLLIRDSQPSDSATYLCAVKSWVIFGKGTRLHILP
Vbeta: GVTQSPTHLIKTRGQQVTLRCSPISGHKSVSWYQQVLGQGPQFIFQYYEKEERGRGNFPDRFSARQFPNYSSELNVNALLLGDSALYLCASSPSAQSSYGYTFGSGTRLTVV

binding result [5]: recognises
B6: 3333 TCR-C (TCR, V domains shown)
Valpha: QKEVEQNSGPLSVPEGAIASLNCTYSDRGSQSFFWYRQYSGKSPELIMSIYSNGDKEDGRFTAQLNKASQYVSLLIRDSQPSDSATYLCAVNRAREAAGNKLTFGGGTRVLVKP
Vbeta: DIYQTPRYLVIGTGKKITLECSQTMGHDKMYWYQQDPGMELHLIHYSYGVNSTEKGDLSSESTVSRIRTEHFPLTLESARPSHTSQYLCASSRPGSEKLFFGSGTQLSVL

binding result [3]: no recognition
binding result [4]: no recognition
B7: 4286 TCR 10-2 (TCR, V domains shown)
Valpha: QKEVEQNSGPLSVPEGAIASLNCTYSDRGSQSFFWYRQYSGKSPELIMFIYSNGDKEDGRFTAQLNKASQYVSLLIRDSQPSDSATYLCAVPNSGYSTLTFGKGTMLLVSP
Vbeta: GVTQSPTHLIKTRGQQVTLRCSPISGHKSVSWYQQVLGQGPQFIFQYYEKEERGRGNFPDRFSARQFPNYSSELNVNALLLGDSALYLCASRTGTVTNSYNEQFFGPGTRLTVL
